Reference: patent publication US20210030836A1 (SHANGHAI INSTITUTE OF NUTRITION AND HEALTH CHINESE ACADEMY …, published 2021)

Target: T1, ATM, phosphorylated (activated) (human, UniProt Q13315 2-3056, phosphorylated (activated state; site not given))
T1 construct: Endogenous protein co-immunoprecipitated from PSC27 cell lysates; also called p-ATM
Assay: IP with p-TAK1 antibody from lysates of bleomycin-treated PSC27 cells, Western blot (FIG. 2)

T1 sequence (Q13315 2-3056 limits assumed): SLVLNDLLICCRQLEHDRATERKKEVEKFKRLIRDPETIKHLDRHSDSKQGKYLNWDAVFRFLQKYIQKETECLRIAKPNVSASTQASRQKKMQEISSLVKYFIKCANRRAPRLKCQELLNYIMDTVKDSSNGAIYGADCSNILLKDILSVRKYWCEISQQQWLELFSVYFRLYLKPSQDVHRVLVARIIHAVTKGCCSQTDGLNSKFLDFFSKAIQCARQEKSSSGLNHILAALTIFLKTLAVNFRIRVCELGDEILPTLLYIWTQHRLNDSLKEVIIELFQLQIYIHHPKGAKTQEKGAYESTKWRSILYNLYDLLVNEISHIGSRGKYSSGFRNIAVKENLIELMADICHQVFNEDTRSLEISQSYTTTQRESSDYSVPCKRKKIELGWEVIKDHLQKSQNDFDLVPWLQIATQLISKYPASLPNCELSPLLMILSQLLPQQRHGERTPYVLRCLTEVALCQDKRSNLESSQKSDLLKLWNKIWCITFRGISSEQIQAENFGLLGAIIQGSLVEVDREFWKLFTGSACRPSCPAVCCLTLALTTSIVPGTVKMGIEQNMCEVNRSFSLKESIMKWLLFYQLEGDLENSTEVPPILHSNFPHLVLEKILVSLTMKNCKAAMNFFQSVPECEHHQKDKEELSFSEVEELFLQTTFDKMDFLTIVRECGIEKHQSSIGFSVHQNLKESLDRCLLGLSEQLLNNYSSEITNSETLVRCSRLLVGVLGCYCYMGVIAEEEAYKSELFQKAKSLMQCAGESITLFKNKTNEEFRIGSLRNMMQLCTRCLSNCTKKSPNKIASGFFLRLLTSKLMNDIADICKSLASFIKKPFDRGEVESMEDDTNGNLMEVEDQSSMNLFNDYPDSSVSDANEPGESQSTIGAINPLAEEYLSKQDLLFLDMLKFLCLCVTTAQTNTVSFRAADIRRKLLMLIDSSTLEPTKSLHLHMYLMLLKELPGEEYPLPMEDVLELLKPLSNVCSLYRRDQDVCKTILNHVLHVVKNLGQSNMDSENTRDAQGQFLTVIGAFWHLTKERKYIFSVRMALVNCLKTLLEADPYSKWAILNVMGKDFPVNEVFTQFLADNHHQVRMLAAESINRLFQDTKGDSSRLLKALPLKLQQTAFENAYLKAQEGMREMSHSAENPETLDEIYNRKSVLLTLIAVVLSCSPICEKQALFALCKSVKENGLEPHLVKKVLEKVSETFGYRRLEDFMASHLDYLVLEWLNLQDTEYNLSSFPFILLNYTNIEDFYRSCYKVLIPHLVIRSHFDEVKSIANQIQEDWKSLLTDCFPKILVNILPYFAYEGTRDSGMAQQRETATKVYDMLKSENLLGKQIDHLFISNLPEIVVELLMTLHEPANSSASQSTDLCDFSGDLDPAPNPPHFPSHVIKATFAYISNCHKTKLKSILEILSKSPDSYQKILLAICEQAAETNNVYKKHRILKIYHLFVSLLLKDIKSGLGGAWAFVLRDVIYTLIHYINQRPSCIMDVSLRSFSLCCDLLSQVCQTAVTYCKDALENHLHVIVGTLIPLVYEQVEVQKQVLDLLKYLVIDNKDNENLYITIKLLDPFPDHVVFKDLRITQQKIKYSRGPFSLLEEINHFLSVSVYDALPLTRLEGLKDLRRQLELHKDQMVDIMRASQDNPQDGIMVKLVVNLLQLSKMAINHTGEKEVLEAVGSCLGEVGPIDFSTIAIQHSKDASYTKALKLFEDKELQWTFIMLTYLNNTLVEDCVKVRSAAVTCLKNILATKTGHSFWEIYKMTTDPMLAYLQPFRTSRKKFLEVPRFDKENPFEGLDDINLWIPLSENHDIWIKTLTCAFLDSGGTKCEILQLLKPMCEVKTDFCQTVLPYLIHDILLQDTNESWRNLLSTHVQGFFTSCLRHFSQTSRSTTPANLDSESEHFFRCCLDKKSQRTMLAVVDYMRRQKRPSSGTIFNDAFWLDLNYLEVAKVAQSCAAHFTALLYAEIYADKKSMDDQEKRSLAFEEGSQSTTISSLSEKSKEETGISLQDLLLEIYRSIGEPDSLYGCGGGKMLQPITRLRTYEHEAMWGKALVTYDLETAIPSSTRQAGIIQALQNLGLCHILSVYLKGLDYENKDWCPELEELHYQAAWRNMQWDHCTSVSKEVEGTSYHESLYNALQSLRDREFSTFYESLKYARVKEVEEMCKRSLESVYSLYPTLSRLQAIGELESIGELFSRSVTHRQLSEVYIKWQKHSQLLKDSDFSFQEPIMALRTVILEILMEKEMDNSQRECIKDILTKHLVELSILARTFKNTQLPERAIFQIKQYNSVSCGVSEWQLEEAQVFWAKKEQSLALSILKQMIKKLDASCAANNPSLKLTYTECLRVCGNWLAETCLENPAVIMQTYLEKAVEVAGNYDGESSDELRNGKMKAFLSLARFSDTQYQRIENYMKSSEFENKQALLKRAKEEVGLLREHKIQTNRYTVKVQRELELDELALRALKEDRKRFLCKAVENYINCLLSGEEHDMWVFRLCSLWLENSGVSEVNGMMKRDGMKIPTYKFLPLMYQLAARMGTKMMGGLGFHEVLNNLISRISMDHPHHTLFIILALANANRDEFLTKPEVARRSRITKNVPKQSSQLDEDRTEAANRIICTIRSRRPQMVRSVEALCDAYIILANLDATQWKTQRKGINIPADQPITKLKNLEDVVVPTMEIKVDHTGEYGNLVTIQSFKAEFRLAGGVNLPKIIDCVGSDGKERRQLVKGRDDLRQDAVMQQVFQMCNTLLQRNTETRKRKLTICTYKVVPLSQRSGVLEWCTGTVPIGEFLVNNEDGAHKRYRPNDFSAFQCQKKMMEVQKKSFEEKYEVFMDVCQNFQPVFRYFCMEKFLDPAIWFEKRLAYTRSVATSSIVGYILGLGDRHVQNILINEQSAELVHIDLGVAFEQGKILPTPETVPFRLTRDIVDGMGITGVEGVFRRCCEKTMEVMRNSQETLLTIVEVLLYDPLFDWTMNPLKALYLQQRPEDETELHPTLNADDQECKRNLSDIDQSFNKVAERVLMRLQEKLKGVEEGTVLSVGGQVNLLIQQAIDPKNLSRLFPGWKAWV

binding result: no binding
B1: Transforming growth factor kinase 1 (TAK1), phosphorylated (activated) (enzyme, human, UniProt O43318 1-606, looked up)
chain: MSTASAASSSSSSSAGEMIEAPSQVLNFEEIDYKEIEVEEVVGRGAFGVVCKAKWRAKDVAIKQIESESERKAFIVELRQLSRVNHPNIVKLYGACLNPVCLVMEYAEGGSLYNVLHGAEPLPYYTAAHAMSWCLQCSQGVAYLHSMQPKALIHRDLKPPNLLLVAGGTVLKICDFGTACDIQTHMTNNKGSAAWMAPEVFEGSNYSEKCDVFSWGIILWEVITRRKPFDEIGGPAFRIMWAVHNGTRPPLIKNLPKPIESLMTRCWSKDPSQRPSMEEIVKIMTHLMRYFPGADEPLQYPCQYSDEGQSNSATSTGSFMDIASTNTSNKSDTNMEQVPATNDTIKRLESKLLKNQAKQQSESGRLSLGASRGSSVESLPPTSEGKRMSADMSEIEARIAATTAYSKPKRGHRKTASFGNILDVPEIVISGNGQPRRRSIQDLTVTGTEPGQVSSRSSSPSVRMITTSGPTSEKPTRSHPWTPDDSTDTNGSDNSIPMAYLTLDHQLQPLAPCPNSKESMAVFEQHCKMAQEYMKVQTEIALLLQRKQELVAELDQDEKDQQNTSRLVQEHKKLLDENKSLSTYYQQCKKQLEVIRSQQQKRQGTS
modifications: phosphorylated (activated state; site not given)
notes: Endogenous protein immunoprecipitated with a p-TAK1 antibody from PSC27 cell lysates; also called p-TAK1
